# Results: patent US20200010841
# Molecular target: T1, HFR1^n-131aa-TBPm3 conjugated protein (UniProt Q9FE22)
# T1 sequence: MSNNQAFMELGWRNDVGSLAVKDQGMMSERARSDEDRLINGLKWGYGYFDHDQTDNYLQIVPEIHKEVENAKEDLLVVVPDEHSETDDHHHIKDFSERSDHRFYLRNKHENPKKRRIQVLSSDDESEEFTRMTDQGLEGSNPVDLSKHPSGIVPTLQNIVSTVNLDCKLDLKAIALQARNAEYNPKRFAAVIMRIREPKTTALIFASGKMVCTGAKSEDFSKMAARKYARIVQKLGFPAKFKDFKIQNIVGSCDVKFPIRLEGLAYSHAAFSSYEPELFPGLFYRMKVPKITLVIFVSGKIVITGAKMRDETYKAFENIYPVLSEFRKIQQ
substance,measurement,value
COP1^L105A (Constitutive photomorphogenic1 with amino acid mutation Leu to Ala),"Histochemical GUS staining of post-meiotic anther tapetum, ES transgenic versus F1 [ES x RS]",no staining was appear in the F1 tapetum of the same anther stage
same,Relative expression of BECLIN1 transcript (qRT-PCR) in anther developmental stages of F1 [MS x RS],"When expression of BECLIN1 was checked in different anther developmental stages, it was found that their expression was abolished"
